Test results: patent publication US20240336686A1 (ELPISCIENCE SUZHOU BIOPHARMA, published 2024)
Where a chain is given by its changes, count along the chain named. Where two headings read alike, the source gives them in different places. Blank lines part the entries; values can stand above or below the binder they belong to.

Key:
[1] = molecular target: T1, human SIRPα v2 on CHOK1 cells (human, UniProt P78324 31-504); test: FACS, CHOK1 cells stably expressing human SIRPα v2
T1 construct: whole, on cells; also called CHOK1-hSIRPα v2; cell surface human SIRPα v2
Excerpt: (§1) Binding activity of the purified chimeric antibodies against human SIRPα variants was detected by FACS assay using CHOK1 cells or 293F cells stably expressing human SIRPα v1 and CHOK1 cells stably expressing human SIRPα v2. […] EC₅₀ and top signal calculated using GraphPad Prism9.0.

[2] = molecular target: T2, mFc tagged human SIRPα v1 ECD recombinant protein (human, UniProt P78324 31-373); test: competitive ELISA; row antibody in excess in solution, coated mAb 042c
T2 construct: extracellular domain; not shown: mouse Fc tag
Protocol: (§2) Competitive ELISA assay was used for epitope binning of purified chimeric antibodies. Briefly excessive competitor antibody and mFc tagged human SIRPα v1 ECD recombinant protein were co-incubated with ELISA microplate coated antibody. After washing, HRP labeled anti-mouse Fc 2nd antibody (Sigma) was added and incubated at 37° C. for 1 hour. Then, 100 μl/well of TMB solution (Biotechnology) was added. After incubation for 15 minutes at room temperature, the reaction was stopped by the addition of 50 μl of 1N HCl. OD 450 nm was read. Competition ratio was calculated. The antibodies that can compete each other for binding to SIRPα may have related binding epitopes.

[3] = molecular target: T2, mFc tagged human SIRPα v1 ECD …; test: competitive ELISA; row antibody in excess in solution, coated mAb hu1H9G4
Protocol: as §2

[4] = molecular target: T3, Full length human SIRPα v1 with beta-gal fragment (ED) at its C-terminal, in K562 cells (human, UniProt P78324 31-504); test: cell-based or functional assay
[5] = molecular target: T2, mFc tagged human SIRPα v1 ECD …; test: competitive ELISA; row antibody in excess in solution, coated mAb 025c
Protocol: as §2

[6] = molecular target: T4, human SIRPα v1 ECD recombinant protein (human, UniProt P78324 31-373); test: competitive ELISA, plate-coated human SIRPα v1 ECD; blocked ligand: mFc tagged human CD47 ECD
T4 construct: extracellular domain; Coated on the ELISA plate
Protocol: (§3) Competitive ELISA assay was used to determine whether the purified chimeric antibodies can block CD47 and SIRPα interaction. Briefly, antibody and mFc tagged human CD47 ECD recombinant protein were co-incubated with ELISA microplate coated human SIRPα v1 ECD or human SIRPα v2 ECD recombinant protein. The concentration of soluble ECD of CD47 is 25 nM, and the concentration of soluble ECD of SIRPα is 20 nM. After washing, HRP labeled anti-mouse Fc 2nd antibody (Sigma) was added and incubated at 37° C. for 1 hour. Then, 100 μl/well of TMB solution (Biotechnology) was added. After incubation for 15 minutes at room temperature, the reaction was stopped by the addition of 50 μl of 1N HCl. OD 450 nm was read. Blocking ratio was determined by blockade of human SIRPα ECD recombinant protein binding to ELISA microplate coated human CD47 ECD recombinant protein. All antibodies as tested can block interaction between human CD47 and different human SIRPα variants.

[7] = molecular target: T5, human SIRPα v1 on CHOK1 cells (human, UniProt P78324 31-504); test: FACS, CHOK1 cells stably expressing human SIRPα v1
T5 construct: whole, on cells; also called CHOK1-hSIRPα v1; cell surface human SIRPα v1
Excerpt: as §1

[8] = molecular target: T6, human SIRPα v2 ECD recombinant protein (human); test: competitive ELISA, plate-coated human SIRPα v2 ECD; blocked ligand: mFc tagged human CD47 ECD
T6 construct: extracellular domain; Coated on the ELISA plate
Protocol: as §3

[9] = molecular target: T7, human PDL1 on cells (human, UniProt Q9NZQ7 19-290); test: FACS, Raji cells overexpressing human PDL1, anti-human Fc-PE, MFI
T7 construct: whole, on cells; also called Raji/hPDL1; CHO cells that expressed PDL1
Protocol: Approximately 100,000 Raji cells overexpressing human PDL1 were washed with wash buffer and incubated with 100 ul serial dilution of PDL1/SIRPα bispecific protein for 30 minutes on ice. Cells were then washed twice with wash buffer and incubated with 100 ul of anti-human Fc-PE for 30 minutes on ice. Cells were then washed twice with wash buffer and analyzed on a FACS Canto II analyzer (BD Biosciences). […] The bispecific antibodies ES019-025, ES019-026 bound Raji/hPDL1 similar to anti-PDL1 monoclonal antibody C71 whereas ES019-020, ES019-024 bound Raji/hPDL1 to a lesser extent relative to anti-PDL1, C71.

[10] = molecular target: T7, human PDL1 on cells; test: cell-based or functional assay
[11] = molecular target: human PDL1 protein (Octet assay) (human, UniProt Q9NZQ7 19-238); test: Octet; antibody on sensor, PDL1 protein in solution
Protocol: The Anti-PDL1/SIRPα bispecific protein were characterized for binding affinity against human PDL1 using Octet assay (ForeBio) according to manufacturer's manual, separately. Briefly, the antibodies were coupled on sensors and then the sensors were dipped into PDL1 protein gradients (start at 200 nM, with 2-fold dilution and totally 8 doses). Their binding responses were measured in real-time and results were fit globally.

[12] = molecular target: T5, human SIRPα v1 on CHOK1 cells; test: competitive FACS, CHOK1 cells stably expressing human SIRPα v1; blocked ligand: mFc tagged human CD47 ECD
Protocol: (§4) Competitive FACS assay was also set up to further compare the blocking activity of the humanized antibodies and some known anti-SIRPα antibodies. Briefly antibody and mFc tagged human CD47 ECD recombinant protein were co-incubated with CHOK1 cells stably expressing human SIRPα v1 or human SIRPα v2. After washing, dye labeled anti-mouse Fc 2nd antibody (Sigma) was added and incubated at 37° C. for 1 hour. Fluorescence intensity was detected. Blocking ratio was determined by blockade of human CD47 ECD recombinant protein binding to SIRPα expressed CHOK1 cells.

[13] = molecular target: T4, human SIRPα v1 ECD recombinant protein; test: competitive ELISA, plate-coated human SIRPα v1 ECD; blocked ligand: mFc tagged human CD47 ECD; remark: listed apart in the source
Protocol: as §3
(§5) The humanized antibodies were tested for the ability to block CD47 and SIRPα interaction with competitive ELISA assay (refer to methods described above).

[14] = molecular target: T1, human SIRPα v2 on CHOK1 cells; test: FACS, CHOK1 cells stably expressing human SIRPα v2; remark: listed apart in the source
[15] = molecular target: T5, human SIRPα v1 on CHOK1 cells; test: FACS, CHOK1 cells stably expressing human SIRPα v1; remark: listed apart in the source
[16] = molecular target: T1, human SIRPα v2 on CHOK1 cells; test: competitive FACS, CHOK1 cells stably expressing human SIRPα v2; blocked ligand: mFc tagged human CD47 ECD
Protocol: as §4

[17] = molecular target: T6, human SIRPα v2 ECD recombinant protein; test: competitive ELISA, plate-coated human SIRPα v2 ECD; blocked ligand: mFc tagged human CD47 ECD; remark: listed apart in the source
Protocol: as §3, §5

[18] = molecular target: T3, Full length human SIRPα v1 with …; test: cell-based or functional assay; remark: listed apart in the source
[19] = molecular target: T8, Human SIRPα v2 (human); test: SPR (Biacore), 1:1 binding model
T8 construct: also called human SIRPα v2 (antigen of the Biacore assay)
Protocol: The humanized antibodies were characterized for binding affinity against human SIRPα v1, human SIRPα v2 using Surface Plasmon Resonance technology (Biacore system). The association and dissociation curves were fit with 1:1 binding model, and the Ka/Kd/KD values for each antibody were calculated.

T5 sequence (P78324 31-504): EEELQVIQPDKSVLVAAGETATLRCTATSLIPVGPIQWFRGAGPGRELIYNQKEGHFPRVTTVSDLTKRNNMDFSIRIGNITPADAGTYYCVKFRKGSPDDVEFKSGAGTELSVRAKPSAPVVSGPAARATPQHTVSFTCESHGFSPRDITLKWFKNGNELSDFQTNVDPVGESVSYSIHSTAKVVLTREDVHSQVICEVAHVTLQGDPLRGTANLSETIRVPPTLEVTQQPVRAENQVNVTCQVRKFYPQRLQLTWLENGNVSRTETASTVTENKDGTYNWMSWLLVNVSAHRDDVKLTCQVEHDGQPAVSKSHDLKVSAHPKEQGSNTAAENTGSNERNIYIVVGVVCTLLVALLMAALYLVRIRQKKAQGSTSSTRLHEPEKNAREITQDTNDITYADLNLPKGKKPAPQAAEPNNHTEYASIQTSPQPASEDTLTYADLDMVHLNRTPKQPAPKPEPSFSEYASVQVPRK
T3 sequence (P78324 31-504): as above
T7 sequence (Q9NZQ7 19-290): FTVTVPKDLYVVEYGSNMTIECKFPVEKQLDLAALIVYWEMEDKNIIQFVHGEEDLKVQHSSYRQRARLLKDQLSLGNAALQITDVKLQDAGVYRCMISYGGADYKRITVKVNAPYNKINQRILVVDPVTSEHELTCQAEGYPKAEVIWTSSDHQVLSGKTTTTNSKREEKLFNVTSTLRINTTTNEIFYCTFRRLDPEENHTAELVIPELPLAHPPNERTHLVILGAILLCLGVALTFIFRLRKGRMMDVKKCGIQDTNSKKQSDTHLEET
T1 sequence (P78324 other isoform, or with tags, fused parts or gaps limits assumed): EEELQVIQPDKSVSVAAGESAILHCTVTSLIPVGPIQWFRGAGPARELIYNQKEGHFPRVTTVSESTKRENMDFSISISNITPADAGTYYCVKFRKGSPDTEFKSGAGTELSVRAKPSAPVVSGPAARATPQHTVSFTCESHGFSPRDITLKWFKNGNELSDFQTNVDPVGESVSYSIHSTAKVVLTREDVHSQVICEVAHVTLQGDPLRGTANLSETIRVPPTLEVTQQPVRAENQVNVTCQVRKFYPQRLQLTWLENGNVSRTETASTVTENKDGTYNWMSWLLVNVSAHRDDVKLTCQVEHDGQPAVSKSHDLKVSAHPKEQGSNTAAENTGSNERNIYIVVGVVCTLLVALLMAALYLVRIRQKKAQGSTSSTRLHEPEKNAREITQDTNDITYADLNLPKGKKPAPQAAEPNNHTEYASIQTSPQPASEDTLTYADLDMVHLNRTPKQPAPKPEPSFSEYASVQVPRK
T4 sequence (P78324 31-373): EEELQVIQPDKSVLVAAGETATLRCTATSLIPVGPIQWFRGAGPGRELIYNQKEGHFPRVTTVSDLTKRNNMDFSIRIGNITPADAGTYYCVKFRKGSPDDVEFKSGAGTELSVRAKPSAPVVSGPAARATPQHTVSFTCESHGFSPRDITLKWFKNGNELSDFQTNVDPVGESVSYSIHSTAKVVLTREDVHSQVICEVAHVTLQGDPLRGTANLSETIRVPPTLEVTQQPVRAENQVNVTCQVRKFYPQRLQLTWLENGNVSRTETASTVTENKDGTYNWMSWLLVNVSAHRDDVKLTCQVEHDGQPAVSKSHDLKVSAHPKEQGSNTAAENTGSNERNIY
T2 sequence (P78324 31-373): as above
human PDL1 protein (Octet assay), sequence (Q9NZQ7 19-238 limits assumed): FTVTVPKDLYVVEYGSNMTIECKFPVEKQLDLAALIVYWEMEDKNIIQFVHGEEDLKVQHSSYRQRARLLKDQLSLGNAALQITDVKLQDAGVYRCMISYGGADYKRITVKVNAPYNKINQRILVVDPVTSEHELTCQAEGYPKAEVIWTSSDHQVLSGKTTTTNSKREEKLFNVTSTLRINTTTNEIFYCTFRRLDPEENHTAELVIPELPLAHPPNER

EC50 [1]: 2.12 nM
TOP MFI [1]: 47300 MFI
% Competition [2]: 93.6%
% Competition [3]: 37.7%
IC50 (SHP-1 recruitment blocking) [4]: 5.66 nM
TOP blocking (SHP-1 recruitment) [4]: 51.2%
% Competition [5]: 9.1%
IC50 [6]: 2.74 nM
TOP blocking [6]: 95.1%
EC50 [7]: 1.5 nM
TOP MFI [7]: 67800 MFI
IC50 [8]: 4.92 nM
TOP blocking [8]: 82.8%
B2: Anti-SIRPα antibody C73 (antibody, human IgG4, V domains shown)
VH: QIQLVQSGPELKKPGETVKISCKASGYTFTTYGMSWVKQAPGKGLKWMVWINTYSGVPTYADDFKGRFAFSLETSASTSYLQINNLKNEDTATYFCARDPHYYGSSPAWFVYWGQGTLVTVSA
VL: DIVMTQSQKFMSTTIGDRVSITCEASQIVGIAVAWYQQKPGQSPKLLIYSASNRYTGVPDRFTGSGSGTDFTLTISNMQSEDLANYFCQQYSAYPFTFGSGTKLEVK
notes: Mouse variable regions; also called 073c; 073C

IC50 [12]: 0.57 nM
TOP blocking [12]: 97.7%
IC50 [13]: 2.6 nM
TOP blocking [13]: 97.2%
EC50 [14]: 0.81 nM
TOP MFI [14]: 45800 MFI
EC50 [15]: 1.13 nM
TOP MFI [15]: 57800 MFI
IC50 [16]: 0.75 nM
TOP blocking [16]: 100%
IC50 [17]: 2.07 nM
TOP blocking [17]: 98%
IC50 (SHP-1 recruitment blocking) [18]: 0.1 nM
TOP blocking (SHP-1 recruitment) [18]: 85.5%
Kd [19]: 2.78 nM
koff [19]: 0.00492 s⁻¹
kon [19]: 1.77e+06 M⁻¹ s⁻¹
B4: Humanized anti-SIRPα antibody hu025.023 (antibody, V domains shown)
VH: EVQLVQSGAEVKKPGATVKISCKVSGFNIKDYYMHWVQQAPGKGLEWIGRIDPEDAETKYAPKFQGRVTITADTSTNTAYMELSSLRSEDTAVYYCDRGLAYWGQGTLVTVSS
VL: EIVLTQSPATLSLSPGERATLSCSASSSVSSSYLYWYQQKPGQAPKLWIYSTSNLASGIPARFSGSGSGTDFTLTISSLEPEDFAVYYCHQWSSYPYTFGQGTKLEIK
notes: Humanized from C25

IC50 [12]: 0.53 nM
TOP blocking [12]: 98.7%
IC50 [13]: 2.15 nM
TOP blocking [13]: 95.2%
EC50 [14]: 0.8 nM
TOP MFI [14]: 48800 MFI
EC50 [15]: 0.84 nM
TOP MFI [15]: 61500 MFI
IC50 [16]: 0.77 nM
TOP blocking [16]: 99.8%
IC50 [17]: 1.88 nM
TOP blocking [17]: 97%
IC50 (SHP-1 recruitment blocking) [18]: 0.09 nM
TOP blocking (SHP-1 recruitment) [18]: 87.5%
Kd [19]: 2.34 nM
koff [19]: 0.00344 s⁻¹
kon [19]: 1.47e+06 M⁻¹ s⁻¹
B5: Humanized anti-SIRPα antibody hu025.060 (antibody, V domains shown)
VH: B4 VH with V24A
VL: B4 VL
notes: Humanized from C25

% Competition [2]: 82.6%
% Competition [3]: 90.5%
% Competition [5]: 14.5%
B7: Reference anti-SIRPα antibody hu1H9G4 (antibody, human IgG4, V domains shown)
VH: QVQLVQSGAEVKKPGASVKVSCKASGYTFTSYWITWVKQAPGQGLEWIGDIYPGSGSTNHIEKFKSKATLTVDTSISTAYMELSRLRSDDTAVYYCATGYGSSYGYFDYWGQGTLVTVSS
VL: DIQMTQSPSSLSASVGDRVTITCRASENIYSYLAWYQQKPGKAPKLLIYTAKTLAEGVPSRFSGSGSGTDFTLTISSLQPEDFATYYCQHQYGPPFTFGQGTKLELK

Further lines, the binder ahead of its results:

B1: Anti-SIRPα antibody C42 (antibody, human IgG4, V domains shown)
VH: QIQLVQSGPELKKPGETVKISCRASGYTFTTYGMSWVKQAPGKGLRWMGWINTYSGVSTCADDFKGRFAFSLETSATTAYLQIHNLTNEDTATYFCARDPHSYGNSPAWFPYWGQGTLVTVSA
VL: B2 VL with G16R, E24K, I28N, A32S, P40S, N85D, A93S, F96L, E105A, V106I
notes: Mouse variable regions; also called 042c
EC50 [1]: 4.21 nM
TOP MFI [1]: 54800 MFI
% Competition [2]: 93.9%
% Competition [3]: 29.8%
IC50 (SHP-1 recruitment blocking) [4]: 0.99 nM
TOP blocking (SHP-1 recruitment) [4]: 70%
% Competition [5]: 8.9%
IC50 [6]: 3.6 nM
TOP blocking [6]: 97.1%
EC50 [7]: 1.9 nM
TOP MFI [7]: 73200 MFI
IC50 [8]: 4.49 nM
TOP blocking [8]: 94.6%

B3: Anti-PDL1 antibody C71 (antibody, V domains shown)
VH: EVQVVESGGGLVQSGGSLKLSCAGSGFTESAGFMVWHRQVPGKERELVALIATPSGSTNYADSVKGRFTISRDNGKNTVYLQMNSLKPEDTAVYYCNIRGYWGQGTLVTVSS
notes: Heavy chain antibody (single domain variable region); also called Anti-PDL1, C71
EC50 (read off the curve) [9]: ~0.2 nM
EC50 (read off the curve) [10]: ~2 nM
Kd [11]: 5.31 nM
koff [11]: 0.00501 s⁻¹
kon [11]: 942000 M⁻¹ s⁻¹

B6: Anti-PDL1/SIRPα bispecific antibody ES019-026 (bispecific antibody, not shown: small tags and cut ends; a dimerising Fc or GST)
light (part 1 of 2): B3 VH
light (part 2 of 2): QIVLTQSPAIMSASPGEKVTLTCSASSSVSSSYLYWYQQKPGSSPKLWIYSTSNLASGVPARFSGSGSGTSYSLTISSMEAEDAASYFCHQWSSYPYTFGGGTKLEIK
heavy: EVQLQQSGAELVKPGASVKLSCTASGFNIKDYYMHWVKQRTEQGLEWIGRIDPEDGETKYAPKFQGKATITADTSSNTAYLQLSSLTSEDTAVYYCDRGLAYWGQGTLVTVSA
EC50 (read off the curve) [10]: ~1 nM
Kd [11]: 4.1 nM
koff [11]: 0.00639 s⁻¹
kon [11]: 1.56e+06 M⁻¹ s⁻¹
